Laboratory results from patent US20130157959.

How the values were obtained:
[1] = target: in vitro translated 35S-labelled mutant p53 K24R, P04637
[2] = target: in vitro translated 35S-labelled p53 (wild-type), P04637

B1: GST-Hades Ring protein (RP) (protein)
chain: RLKQMQEEFQEHEAQLLSRAKPEDRESLKSACVVCLSSFKSCVFLECGHVCSCTECYRALPEPKKCPICRQAITRVIPLYN
- in vitro ubiquitination of 35S-labelled p53 K24R, SDS-PAGE and autoradiography [1]: the in vitro translated p53 K24R was not ubiquitinated by Hades
- in vitro ubiquitination of 35S-labeled p53 with E1 and several E2 enzymes, autoradiography [2]: The 35S-labeled p53 was polyubiquitinated in an Ubc5a or Ubc5c-dependent manner
- in vitro ubiquitination of 35S-labelled p53, SDS-PAGE and autoradiography [2]: WT p53 was ubiquitinated by Hades
- in vitro ubiquitination of p53 with E1, E2 (UbcH5c) and His-ubiquitin, anti-p53 immunoblot [2]: The p53 ubiquitination was only induce by Hades
- in vitro ubiquitination of p53 lysine mutants, immunoblot (mutant p53 6CKR, P04637): Hades was still able to ubiquitinate a form of p53 in which all six lysines was mutated (6CKR)
